Measured values published in publication PMC10977697 (PLOS ONE, 2024).

Legend:
[1] = molecular target: T1, Notch2Long (Notch2 EGF6-EGF12) (human, UniProt Q04721 219-418, biotin on the N-terminal Avi tag (enzymatic)); test: ELISA; conditions: one partner purified
T1 construct: also called N2L protein; hNotch2; not shown: Avi tag, N-terminal, kept
T1 sequence (looked up): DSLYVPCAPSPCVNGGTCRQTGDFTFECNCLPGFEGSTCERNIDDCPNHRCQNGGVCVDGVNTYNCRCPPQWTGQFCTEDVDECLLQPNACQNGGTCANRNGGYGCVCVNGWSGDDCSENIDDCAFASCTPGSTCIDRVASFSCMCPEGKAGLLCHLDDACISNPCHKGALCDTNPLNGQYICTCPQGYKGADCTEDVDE

[2] = molecular target: T2, Notch2NRR (Notch2 NRR domain) (human, UniProt Q04721 1423-1677, biotin on the N-terminal Avi tag (enzymatic)); test: ELISA; conditions: one partner purified
T2 construct: also called NRR protein; not shown: Avi tag, N-terminal, kept
T2 sequence (looked up): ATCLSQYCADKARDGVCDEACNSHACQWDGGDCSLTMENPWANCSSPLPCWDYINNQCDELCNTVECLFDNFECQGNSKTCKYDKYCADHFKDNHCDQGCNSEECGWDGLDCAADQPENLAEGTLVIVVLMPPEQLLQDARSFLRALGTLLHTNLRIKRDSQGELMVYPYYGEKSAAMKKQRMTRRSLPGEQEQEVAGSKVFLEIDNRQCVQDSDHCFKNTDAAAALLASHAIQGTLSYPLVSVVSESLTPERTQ

HtrA1 = molecular target: T3, HtrA1 (human, UniProt Q92743 23-480, biotin on lysines (Sulfo-NHS-LC-biotin) for panning and SPR); test: ELISA; conditions: one partner purified
T3 construct: also called HtrA1 FL; human full-length HtrA1
T3 sequence (Q92743 23-480): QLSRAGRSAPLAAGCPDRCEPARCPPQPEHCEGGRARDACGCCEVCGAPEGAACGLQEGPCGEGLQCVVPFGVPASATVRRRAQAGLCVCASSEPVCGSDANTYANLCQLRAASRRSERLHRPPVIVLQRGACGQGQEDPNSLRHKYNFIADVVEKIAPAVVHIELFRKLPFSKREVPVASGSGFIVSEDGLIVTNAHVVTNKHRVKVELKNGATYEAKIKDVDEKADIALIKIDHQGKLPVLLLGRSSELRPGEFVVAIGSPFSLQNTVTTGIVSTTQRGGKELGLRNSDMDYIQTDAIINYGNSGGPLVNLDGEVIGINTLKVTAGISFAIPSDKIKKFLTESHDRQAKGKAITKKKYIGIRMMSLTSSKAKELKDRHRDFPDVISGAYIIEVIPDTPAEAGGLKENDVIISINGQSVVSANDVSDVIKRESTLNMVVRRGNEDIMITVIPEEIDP

[3] = molecular target: T4, Notch2Long (Notch2 EGF6-EGF12) (human, UniProt Q04721 219-418, biotin via the N-terminal Avi tag (enzymatic biotinylation)); test: SPR; conditions: both partners purified
T4 construct: also called N2L protein; hNotch2; not shown: Avi tag, N-terminal, kept
T4 sequence (looked up): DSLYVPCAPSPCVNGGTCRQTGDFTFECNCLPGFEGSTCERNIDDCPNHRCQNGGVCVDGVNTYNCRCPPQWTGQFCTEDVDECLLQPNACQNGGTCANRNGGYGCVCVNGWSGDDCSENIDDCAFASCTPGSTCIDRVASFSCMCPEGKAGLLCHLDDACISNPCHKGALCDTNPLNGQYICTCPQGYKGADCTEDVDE

Binder	ELISA [1]	s/n Ratio [1]	other results
GCGWTLRHCKQDSDCLAGCVCRPIWYCG (designed binder) [N2L.EET03.10 displayed on M13 phage]	3	48.4	–
GCIKSHLWCPSDERCLAGCVCEVWIQCG (designed binder, also called N2L.31.L2.32) [N2L.EET31.32 displayed on M13 phage (p3)]	0.5	3.7	–
GCIKSHLWCKQDSDCEAGCICEVWIQCG (designed binder, also called N2L.31.L34.43) [N2L.EET31.43 displayed on M13 phage (p3)]	0.7	5.1	–
GCIKSHLWCPHGGRCEAGCICEVWIQCG (designed binder) [N2L.EET31.43.30 displayed on M13 phage (p3)]	2.2	10.7	–
GCIKSHLWCDPRKDCEAGCICEVWIQCG (designed binder) [N2L.EET31.43.75 displayed on M13 phage (p3)]	2.1	10.3	–
GCMPRYGGWHCKQDSDCLAGCVCGPNGFCG (designed binder) [N2N-EET-63 displayed on M13 phage]	–	–	ELISA [2]: 1.5; s/n Ratio [2]: 21.3
GCRPRFKGWTCKQDSDCLAGCVCGPNGFCG (designed binder) [N2N-EET-n3 displayed on M13 phage]	–	–	ELISA [2]: 2.1; s/n Ratio [2]: 33.1
GCIKSHLWCPKTSDCEAGCICEVWIQCG (designed binder) [N2L.EET31.43.24 displayed on M13 phage (p3)]	2.1	10.5	–
GCIKSHLWCPPPRRCEAGCICEVWIQCG (designed binder) [N2L.EET31.43.35 displayed on M13 phage (p3)]	2.1	11.6	–
GCIKSHLWCHPKLDCEAGCICEVWIQCG (designed binder) [N2L.EET31.43.18 displayed on M13 phage (p3)]	2.1	10.2	–
GCIKSHLWCDPRVSCEAGCICEVWIQCG (designed binder) [N2L.EET31.43.78 displayed on M13 phage (p3)]	1.9	10.3	–
GCIKSHLWCDPRKSCEAGCICEVWIQCG (designed binder) [N2L.EET31.43.88 displayed on M13 phage (p3)]	1.9	10.2	–
GCVRSHLWCKQDSDCEAGCICEVWIKCG (designed binder) [N2L.EET31.43.73 displayed on M13 phage (p3)]	2.3	11	–
GCIRSHVWCKQDSDCEAGCICEVWVKCG (designed binder) [N2L.EET31.43.64 displayed on M13 phage (p3)]	2	8.8	–
GCIRSHVWCKQDSDCEAGCICEIWIQCG (designed binder) [N2L.EET31.43.43 displayed on M13 phage (p3)]	2	10.2	–
GCIKSHLWCPRDSDCLAGCVCEVWIQCG (designed binder) [N2L.EET31.32.13 displayed on M13 phage (p3)]	2.2	10.2	–
GCIKSHLWCPRHEKCLAGCVCEVWIRCG (designed binder) [N2L.EET31.32.29 displayed on M13 phage (p3)]	2	9.3	–
GCIRSHLWCPPSASCLAGCVCEVWIQCG (designed binder) [N2L.EET31.32.70 displayed on M13 phage (p3)]	1.9	7.3	–
GCIKSHLWCPRAEKCLAGCICEVWIQCG (designed binder) [N2L.EET31.32.33 displayed on M13 phage (p3)]	1.9	9.3	–
GCIKSHLWCPGKERCLAGCICEIWIQCG (designed binder) [N2L.EET31.32.48 displayed on M13 phage (p3)]	1.9	7.2	–
GCIKSHLWCPPSDYCLAGCVCEVWIQCG (designed binder) [N2L.EET31.32.21 displayed on M13 phage (p3)]	1.8	9.1	–

Binder	ELISA [1]	s/n Ratio [1]	other results
GCIRSQLWCPSDERCLAGCVCEVWIKCG (designed binder) [N2L.EET31.32.80 displayed on M13 phage (p3)]	2.1	7.6	–
GCVRSHVWCPSDERCLAGCVCEIWIRCG (designed binder) [N2L.EET31.32.85 displayed on M13 phage (p3)]	2	4.3	–
GCRPRWGGWHCKQDSDCLAGCVCGPNGFCG (designed binder) [N2N-EET-57 displayed on M13 phage]	–	–	ELISA [2]: 3.8; s/n Ratio [2]: 30.9
GCQQRRWGGWQQCKQDSDCLAGCVCGPNGFCG (designed binder) [N2N-EET-33 displayed on M13 phage]	–	–	ELISA [2]: 3.6; s/n Ratio [2]: 28.9
GCGQQRWGGWPLCKQDSDCLAGCVCGPNGFCG (designed binder) [N2N-EET-45 displayed on M13 phage]	–	–	ELISA [2]: 3.5; s/n Ratio [2]: 14.9
GCGQKRMGGWQWCKQDSDCLAGCVCGPNGFCG (designed binder) [N2N-EET-n13 displayed on M13 phage]	–	–	ELISA [2]: 3.4; s/n Ratio [2]: 53.9
GCHRPWWQLWGLCKQDSDCLAGCVCGPNGFCG (designed binder) [HtrA1_EET76 displayed on M13 phage]	–	–	ELISA (HtrA1): 1; s/n Ratio (HtrA1): 13.7
WIPCISAALGCSCKNKVCYIFSKHLCGESCV (designed binder) [HtrA1_CirA65 displayed on M13 phage]	–	–	ELISA (HtrA1): 2.2; s/n Ratio (HtrA1): 33.9
WIPCISAALGCSCKNKVCYFLYQICGESCV (designed binder) [HtrA1_CirA38 displayed on M13 phage]	–	–	ELISA (HtrA1): 2.1; s/n Ratio (HtrA1): 31.9
ACKGVFDACTWKNWRQSRSRECCPNAVCSDKHKWCKWKL (designed binder, Huwentoxin scaffold) [HtrA1_HwTx69 displayed on M13 phage]	–	–	ELISA (HtrA1): 0.9; s/n Ratio (HtrA1): 9.6
ECKGKGAKCSIQWSVYPWKVCCTGSCRSGKC (designed binder, Conotoxin-MVIIA scaffold) [HtrA1_CnTx83 displayed on M13 phage]	–	–	ELISA (HtrA1): 1.1; s/n Ratio (HtrA1): 16.1
GCGWTLRHCKQDSDCLAGCVCEPKWWCG (designed binder) [N2L.EET03.63]	–	–	Kd [3]: 44.8 µM
GCGWTLRHCKQDSDCLAGCVCEPIWWCG (designed binder) [N2L.EET03.18]	–	–	Kd [3]: 8.9 µM
GCGWTLKHCKQDSDCLAGCVCEPIWWCG (designed binder) [N2L.EET03.30]	–	–	Kd [3]: 13.1 µM
GCGWTLRHCKQDSDCLAGCVCKPKWTCG (designed binder) [N2L.EET03.34]	–	–	Kd [3]: 8.6 µM
GCGWTLWHCKQDSDCLAGCVCEPKWFCG (designed binder) [N2L.EET03.58]	–	–	Kd [3]: 8.2 µM
GCGWTLWHCKQDSDCLAGCVCEPKWMCG (designed binder) [N2L.EET03.67]	–	–	Kd [3]: 15.4 µM
GCGWTLRHCKQDSDCLAGCVCEPVWWCG (designed binder) [N2L.EET03.88]	–	–	Kd [3]: 8.8 µM
GCGWTLRHCKQDSDCLAGCVCEPKWMCG (designed binder) [N2L.EET03.1867]	–	–	Kd [3]: 9.5 µM
GCGWTLMHCKQDSDCLAGCVCEPIWWCG (designed binder) [N2L.EET03.n5]	–	–	Kd [3]: 13.2 µM
